Test results: publication PMC3922039

Molecular target: Mboumar-9 transposase (T216A) (Messor bouvieri)
Experiment: SEC; analytical size-exclusion chromatography of DNA-free transposase on Superdex 200 at 4 °C; 5.7 uM in 50 uL of 20 mM PIPES pH 6.8, 500 mM NaCl, 5 mM MgCl2, 1 mM DTT; flow 0.5 mL/min

## Mboumar-9 transposase (T216A) (enzyme)
  stoichiometry N: 2
